Laboratory results reported in patent publication US20250281630A1 (TORAY INDUSTRIES, published 2025).
Where a chain is given by its changes, count along the chain named.

T1: mouse CAPRIN-1 on mouse cancer cells (mouse, UniProt Q60865 2-707)
T1 construct: whole, on cells
T1 sequence (looked up): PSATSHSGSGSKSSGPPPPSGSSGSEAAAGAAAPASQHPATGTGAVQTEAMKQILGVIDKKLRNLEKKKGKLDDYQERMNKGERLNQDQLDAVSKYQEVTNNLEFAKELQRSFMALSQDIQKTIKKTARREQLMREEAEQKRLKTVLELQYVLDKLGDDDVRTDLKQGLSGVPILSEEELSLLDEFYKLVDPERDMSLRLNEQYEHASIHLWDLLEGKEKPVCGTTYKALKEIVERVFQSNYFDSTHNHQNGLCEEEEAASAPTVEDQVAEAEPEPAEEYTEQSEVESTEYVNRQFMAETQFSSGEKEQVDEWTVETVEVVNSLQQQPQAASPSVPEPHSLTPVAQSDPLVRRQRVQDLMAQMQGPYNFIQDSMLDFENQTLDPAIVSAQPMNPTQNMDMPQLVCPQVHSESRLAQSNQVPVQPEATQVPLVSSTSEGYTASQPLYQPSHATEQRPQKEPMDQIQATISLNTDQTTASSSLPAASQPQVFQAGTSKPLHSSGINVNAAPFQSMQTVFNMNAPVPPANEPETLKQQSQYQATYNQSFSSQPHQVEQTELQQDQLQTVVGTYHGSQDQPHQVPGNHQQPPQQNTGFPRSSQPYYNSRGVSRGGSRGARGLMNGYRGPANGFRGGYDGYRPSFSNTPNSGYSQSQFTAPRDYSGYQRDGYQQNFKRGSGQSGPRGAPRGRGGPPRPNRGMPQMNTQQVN

T2: human CAPRIN-1 on the cell membrane surface of human cancer cells (human, UniProt Q14444 2-709)
T2 construct: whole, on cells
T2 sequence (looked up): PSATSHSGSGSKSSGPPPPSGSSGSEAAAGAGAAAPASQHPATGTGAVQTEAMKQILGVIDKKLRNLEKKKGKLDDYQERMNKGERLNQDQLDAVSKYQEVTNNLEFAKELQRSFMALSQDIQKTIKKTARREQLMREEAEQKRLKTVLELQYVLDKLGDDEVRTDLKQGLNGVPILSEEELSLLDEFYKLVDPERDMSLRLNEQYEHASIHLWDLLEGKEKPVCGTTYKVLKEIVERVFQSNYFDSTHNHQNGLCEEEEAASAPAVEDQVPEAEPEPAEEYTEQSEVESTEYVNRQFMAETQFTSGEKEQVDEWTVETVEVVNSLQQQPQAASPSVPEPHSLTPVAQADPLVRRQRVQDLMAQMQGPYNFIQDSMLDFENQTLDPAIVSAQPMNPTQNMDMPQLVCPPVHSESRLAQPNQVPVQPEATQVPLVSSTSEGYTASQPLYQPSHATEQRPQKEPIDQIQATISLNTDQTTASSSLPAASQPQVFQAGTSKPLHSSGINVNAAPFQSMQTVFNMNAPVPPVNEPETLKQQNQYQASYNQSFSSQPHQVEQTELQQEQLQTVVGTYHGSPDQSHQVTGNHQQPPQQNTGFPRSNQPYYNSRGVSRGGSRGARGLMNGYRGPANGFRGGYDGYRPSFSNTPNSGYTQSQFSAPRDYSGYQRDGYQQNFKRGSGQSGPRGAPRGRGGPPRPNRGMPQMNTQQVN

B1: Conjugate 15 (antibody, human IgG1, V domains shown)
VH: AVTLDESGGGLQTPGGALSLVCKASGFTFSGYDMLWVRQAPGKGLEWVAGIGSTGGGTDYGAAVKGRATISRDNGQSTVRLQLNNLRAEDTATYYCAKVAGGCNSGYCRDSPGSIDAWGHGTEVIVS
VL: AVTQQPASVSANPGETVKITCSGGGSRNYYGWYQQKSPGSVPVTVIYYDDQRPSNIPSRFSGALSGSTSTLTITGVQADDEAVYFCGSADSNTYEGSFGAGTTLTVL
notes: human IgG1 constant regions; also called conjugate with MMAE using humanized antibody #9
B2: Conjugate 42 (antibody, human IgG1, V domains shown)
VH: EVQLVESGGGLVQPGGSLRLSCAASGFSLSSHSLGWVRQAPGKGLEWIGDIRSGGSAYYANWAKGRFTISRDNSKNTLYLQMNSLRAEDTAVYYCTRTNGPSDLTNRLDLWGQGTLVTVSS
VL: QVLTQSPSSLSASVGDRVTINCQASQSLYNNENLAWFQQKPGKVPKRLIYGASTLASGVSSRFSGSGSGTEFTLTISSLQCEDFAIYYCLGEFSCGSADCFAFGGGTKVEIK
notes: human IgG1 constant regions; also called conjugate with MMAE using humanized antibody #36
B3: Conjugate 44 (antibody, human IgG1, V domains shown)
VH: B2 VH
VL: EQVLTQSPSSLSASVGDRVTINCQASQSLYNNENLAWFQQKPGKVPKRLIYGASTLASGVSSRFSGSGSGTEFTLTISNLQPEDFAIYYCLGEFSCGSADCFAFGGGTKVEIK
notes: human IgG1 constant regions; also called conjugate with MMAE using humanized antibody #38
B4: Conjugate 88 (antibody, V domains shown)
VH: B2 VH with V2Q, Q3S
VL: B2 VL
notes: human IgG1 constant regions; also called conjugate with MMAE using humanized antibody #2
B5: Conjugate 123 (antibody, V domains shown)
VH: B2 VH with Y94F
VL: B2 VL
notes: human IgG1 constant regions; also called conjugate with MMAE using humanized antibody #37
B6: Conjugate 8 (antibody, human IgG1, V domains shown)
VH: B2 VH with V2Q, Q3S
VL: B2 VL
notes: as for B4
B7: Conjugate 43 (antibody, human IgG1, V domains shown)
VH: B2 VH with Y94F
VL: B2 VL
notes: as for B5
B8: Conjugate 45 (antibody, human IgG1, V domains shown)
VH: B2 VH with Y94F
VL: B3 VL with Q2I, I87T
notes: human IgG1 constant regions; also called conjugate with MMAE using humanized antibody #39
B9: Conjugate 19 (antibody, human IgG1, V domains shown)
VH: GAELVRSGASVKMSCKASGYSFTDYNMYWVKQTPGQGLEWIGYIYPGNGGTNYNQKFKGKATLTADTSSSTAYMQISSLTSEDSAVYFCARDYDDGGYAMDYWGQGTTVTVSS
VL: DIQMTQSPASLSASVGETVTITCRASGNIHNYLTWYQQKQGKSPQLLVYNAKTLADGVPSRFSGSGSGTQYSLKINRLQPEDFGSYYCQHFWNIPWTFGGGTKLNSR
notes: human IgG1 constant regions; also called conjugate with MMAE using humanized antibody #13
B10: Conjugate 20 (antibody, human IgG1, V domains shown)
VH: DAELVKPGASVKISCKASGYTFTDHSIHWVQQKPEQGLEWIGYISPGNGNIKYNEKFKGKATLTADKSSSTAYMQLNSLTSEDSAVYFCKRSLGRGGPYYFDYWGQGTTVTVSS
VL: DIVLTQAAPSLPVTPGESVSISCRSSKSLLHSNGNTYLYWFLQRPGQSPQLLIYRMSNLASGVPDRFSGSGSGTAFTLRISRVEAEDVGVYYCMQHREYPVTFGSGPN
notes: human IgG1 constant regions; also called conjugate with MMAE using humanized antibody #14

The binders below were run against T1, mouse CAPRIN-1 on mouse cancer cells (assay: flow cytometry, Renca and 4T1 cells).

Binding result, binds:
B1, B2, B3, B4, B5, B6, B7, B8, B9, B10

Each binder was assayed against T2, human CAPRIN-1 on the cell membrane … (assay: flow cytometry, BT474 cells).
Description: The tube was left at 4° C. for 1 hour. After washing with PBS, Alexa 488-labeled anti-rabbit IgG (H+L) diluted 100-fold with PBS(-) containing 0.5% FBS (0.5% FBS-PBS(-)) was added thereto, and the tube was left at 4° C. for 1 hour. After washing with 0.5% FBS-PBS(-), the cells were reacted with BD Horizon Fixable Viability Stain (FVS) Reagents (FVS450, Becton, Dickinson and Company) to stain dead cells, and the fluorescence intensity was then measured using FACSFortessa™ (Becton, Dickinson and Company).

Binding result, binds:
B1, B2, B3, B4, B5, B6, B7, B8, B9, B10
